Consider 5 molecules from article PMC4526367, “Weak Interactions between Salmonella enterica FlhB and Other Flagellar Export Apparatus Proteins Govern Type III Secretion Dynamics” (PLoS ONE, 2015).

Read-outs that look alike come from different tables or passages of the source.

One data set has as its target FliK (UniProt P26416). Briefly: BLI.
The target of data set [1] is cytoplasmic domain of FlhA (FlhAC) (UniProt P40729). Briefly: BLI; FlhAC ligand on streptavidin sensors, FlhBC analyte 2, 1, 0.5, 0.25 and 0.125 uM; HBS-T, 25°C; one-state association fits, global two-state dissociation fit, steady state analysis, kobs vs [FlhBC]. Background: BLI is a label-free optical method that tracks binding on a fibre tip over time.
For data set [2] the target is unchanged. Described as above. This is another data set of the same source.
Data set [3] deals with FlhB cytoplasmic domain (Salmonella enterica) (UniProt P40727). Kind of data set: SPR. To be noted: cited from earlier work.
Data set [4] deals with the molecule itself. Kind of data set: AUC; sedimentation equilibrium, buffer with 33 mM C8E5, scans at 280 nm; fit to a single-species model.
The target in data set [5] is T1, full-length wild-type FlhB (Salmonella enterica, UniProt P40727).
T1 construct: also called FlhB from pMM9; source: overproduced from pMM9, purified under nondenaturing conditions from solubilized crude membrane fractions
T1 sequence 1: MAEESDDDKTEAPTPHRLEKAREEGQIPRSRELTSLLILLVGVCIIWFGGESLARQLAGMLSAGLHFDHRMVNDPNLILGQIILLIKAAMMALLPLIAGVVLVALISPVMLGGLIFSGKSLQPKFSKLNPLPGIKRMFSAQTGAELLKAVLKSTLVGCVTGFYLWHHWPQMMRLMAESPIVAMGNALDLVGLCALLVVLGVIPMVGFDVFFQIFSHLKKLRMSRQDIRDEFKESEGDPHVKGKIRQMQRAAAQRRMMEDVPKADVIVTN
T1 sequence 2: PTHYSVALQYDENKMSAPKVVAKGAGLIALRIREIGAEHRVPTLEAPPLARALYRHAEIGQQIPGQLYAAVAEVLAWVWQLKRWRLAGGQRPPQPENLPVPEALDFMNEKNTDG
Kind of data set: BLI. To be noted: both partners purified.

Data set [6] deals with T2, FliI (UniProt P26465 1-456, biotin by amine crosslinking (NHS-LC-LC-biotin) when used as ligand).
T2 construct: source: E. coli BL21DE3(pLysS), purified (Talon IMAC, gel filtration into HBS-T)
T2 sequence: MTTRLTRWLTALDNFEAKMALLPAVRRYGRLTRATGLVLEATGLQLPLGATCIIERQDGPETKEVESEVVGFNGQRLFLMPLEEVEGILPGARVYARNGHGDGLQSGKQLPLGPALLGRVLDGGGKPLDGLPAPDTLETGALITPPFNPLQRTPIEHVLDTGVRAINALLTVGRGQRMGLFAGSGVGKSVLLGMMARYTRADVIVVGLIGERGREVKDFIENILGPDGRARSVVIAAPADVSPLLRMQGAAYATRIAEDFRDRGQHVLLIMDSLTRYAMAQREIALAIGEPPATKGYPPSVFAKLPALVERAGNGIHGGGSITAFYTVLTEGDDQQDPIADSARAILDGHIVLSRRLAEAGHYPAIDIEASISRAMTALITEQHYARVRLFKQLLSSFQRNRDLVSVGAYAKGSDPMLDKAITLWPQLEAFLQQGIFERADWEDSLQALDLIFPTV
Kind of data set: BLI. The conditions noted are these: both partners purified.

The target in data set [7] is T2, FliI. Briefly: BLI; FlhBC ligand on streptavidin sensors, FliI analyte 4, 2, 1, 0.5 and 0.25 uM without ATP; HBS-T, 25°C; global one-state association-then-dissociation model. The conditions noted are these: both partners purified.

Chain of cytoplasmic domain of FlhA (FlhAC) (P40729 whole entry, the tested form may be a part): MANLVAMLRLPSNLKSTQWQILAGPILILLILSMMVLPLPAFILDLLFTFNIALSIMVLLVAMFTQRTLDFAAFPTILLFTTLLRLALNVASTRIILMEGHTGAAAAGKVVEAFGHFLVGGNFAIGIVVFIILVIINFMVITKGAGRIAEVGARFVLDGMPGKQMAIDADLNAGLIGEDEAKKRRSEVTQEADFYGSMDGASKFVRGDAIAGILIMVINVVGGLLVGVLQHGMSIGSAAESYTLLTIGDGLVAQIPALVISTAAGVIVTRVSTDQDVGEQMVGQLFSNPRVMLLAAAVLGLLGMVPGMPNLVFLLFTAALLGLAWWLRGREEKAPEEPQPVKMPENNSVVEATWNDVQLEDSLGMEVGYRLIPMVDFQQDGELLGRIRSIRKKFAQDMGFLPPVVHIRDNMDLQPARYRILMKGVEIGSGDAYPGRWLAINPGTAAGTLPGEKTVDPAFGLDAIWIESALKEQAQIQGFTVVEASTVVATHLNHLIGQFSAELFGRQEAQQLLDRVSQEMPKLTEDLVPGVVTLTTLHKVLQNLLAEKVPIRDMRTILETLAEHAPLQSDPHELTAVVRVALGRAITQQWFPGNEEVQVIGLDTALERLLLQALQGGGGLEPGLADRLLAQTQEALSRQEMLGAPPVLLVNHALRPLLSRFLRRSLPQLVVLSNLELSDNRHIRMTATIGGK
Chain of FliK (UniProt P26416) (P26416 whole entry, the tested form may be a part): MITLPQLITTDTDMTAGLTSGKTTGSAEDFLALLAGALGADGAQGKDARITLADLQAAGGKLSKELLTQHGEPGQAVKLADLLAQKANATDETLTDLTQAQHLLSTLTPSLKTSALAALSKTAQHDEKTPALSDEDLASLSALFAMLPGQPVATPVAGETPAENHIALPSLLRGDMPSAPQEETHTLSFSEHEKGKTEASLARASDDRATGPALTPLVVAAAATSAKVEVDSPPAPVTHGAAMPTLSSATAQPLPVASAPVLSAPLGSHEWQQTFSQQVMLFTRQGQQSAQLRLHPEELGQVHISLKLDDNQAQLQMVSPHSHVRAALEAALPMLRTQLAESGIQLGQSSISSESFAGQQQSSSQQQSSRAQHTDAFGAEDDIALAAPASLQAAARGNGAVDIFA

As a reminder, the Kd is the free concentration of one partner at which half of the binding sites on the other are occupied at equilibrium, for simple one-to-one binding. Usually koff stands for the rate constant with which the complex falls apart. As a reminder, the kon is the second-order rate constant of association. Low values mean slower complex formation, high ones faster complex formation. In the data set with FliK, “cytoplasmic domain of FlhB (FlhBC) (from UniProt P40727 212-383) (domain or fragment)” gave a KD of the initial binding event of 8000 nM, a dissociation constant Kd of 2100 nM, a k1 (observed rate constant of initial binding) at 1 uM FlhBC of 0.05 s⁻¹ and a k1 (observed rate constant of initial binding) at 2 uM FlhBC of 0.1 s⁻¹. In the data set with FliK, this molecule returned a k1 (observed rate constant of initial binding) at 3 uM FlhBC of 0.2 s⁻¹; a k1 (observed rate constant of initial binding) at 4 uM FlhBC of 0.25 s⁻¹; a k1 (observed rate constant of initial binding) at 5 uM FlhBC of 0.25 s⁻¹; a k2 (dissociation of AB to the free proteins), simulation at 1 uM FlhBC of 0.44 s⁻¹. In the data set with FliK, this molecule had a k2 (dissociation of AB to the free proteins), simulation at 2 uM FlhBC of 0.44 s⁻¹; a k2 (dissociation of AB to the free proteins), simulation at 3 uM FlhBC of 0.44 s⁻¹; a k2 (dissociation of AB to the free proteins), simulation at 4 uM FlhBC of 0.44 s⁻¹; a k2 (dissociation of AB to the free proteins), simulation at 5 uM FlhBC of 0.44 s⁻¹. Also, in the data set with FliK, the k3 (shift from AB to AB*), simulation at 1 uM FlhBC is 0.0085 s⁻¹; the k3 (shift from AB to AB*), simulation at 2 uM FlhBC was 0.0085 s⁻¹; the k3 (shift from AB to AB*), simulation at 3 uM FlhBC is 0.0085 s⁻¹; the k3 (shift from AB to AB*), simulation at 4 uM FlhBC was 0.0085 s⁻¹. In the data set with FliK, the k3 (shift from AB to AB*), simulation at 5 uM FlhBC was 0.0085 s⁻¹; the k4 (shift from AB* to AB), simulation at 1 uM FlhBC is 0.008 s⁻¹; the k4 (shift from AB* to AB), simulation at 2 uM FlhBC is 0.008 s⁻¹; the k4 (shift from AB* to AB), simulation at 3 uM FlhBC is 0.008 s⁻¹. In addition, in the data set with FliK, the k4 (shift from AB* to AB), simulation at 4 uM FlhBC is 0.008 s⁻¹; the k4 (shift from AB* to AB), simulation at 5 uM FlhBC is 0.008 s⁻¹; the koff of the initial binding event came out at 0.44 s⁻¹; the kon of the initial binding event was found to be 55000 M⁻¹ s⁻¹. For the same molecule, in data set [1], the equilibrium dissociation constant (Kd) worked out at 1000 nM, the dissociation rate constant (koff) was determined as 0.085 s⁻¹ and the on-rate constant (kon) was determined as 85000 M⁻¹ s⁻¹. Also, in data set [2], the Kd worked out at 1100 nM; the koff, fast state of the global two-state dissociation fit is 0.13 s⁻¹; the koff, slow state of the global two-state dissociation fit came to 0.0047 s⁻¹.
Turning to FliK (from UniProt P26416), the Kd in data set [3] was 3200 nM.

B1: full-length FlhB(N269A), uncleavable variant (natural protein)
chain: MAEESDDDKTEAPTPHRLEKAREEGQIPRSRELTSLLILLVGVCIIWFGGESLARQLAGMLSAGLHFDHRMVNDPNLILGQIILLIKAAMMALLPLIAGVVLVALISPVMLGGLIFSGKSLQPKFSKLNPLPGIKRMFSAQTGAELLKAVLKSTLVGCVTGFYLWHHWPQMMRLMAESPIVAMGNALDLVGLCALLVVLGVIPMVGFDVFFQIFSHLKKLRMSRQDIRDEFKESEGDPHVKGKIRQMQRAAAQRRMMEDVPKADVIVTAPTHYSVALQYDENKMSAPKVVAKGAGLIALRIREIGAEHRVPTLEAPPLARALYRHAEIGQQIPGQLYAAVAEVLAWVWQLKRWRLAGGQRPPQPENLPVPEALDFMNEKNTDG
Usually stoichiometry N stands for the number of molecules, sites or subunits per partner or assembly. For B1, the “stoichiometry N” value in data set [4] stood at 2.

B2: FliH (natural protein)
chain: MSNELPWQVWTPDDLAPPPETFVPVEADNVTLTEDTPEPELTAEQQLEQELAQLKIQAHEQGYNAGLAEGRQKGHAQGYQEGLAQGLEQGQAQAQTQQAPIHARMQQLVSEFQNTLDALDSVIASRLMQMALEAARQVIGQTPAVDNSALIKQIQQLLQQEPLFSGKPQLRVHPDDLQRVEEMLGATLSLHGWRLRGDPTLHHGGCKVSADEGDLDASVATRWQELCRLAAPGVL
modifications: biotin by amine crosslinking (NHS-LC-LC-biotin) when used as ligand
notes: source: E. coli BL21DE3(pLysS), purified (Talon IMAC, gel filtration into HBS-T)
B2: in data set [5], the “KD with the 2 μM sample included” value stood at 900 nM and binding was characterised by a dissociation constant (Kd) of 800 nM.

B3: cytoplasmic domain of FlhB (FlhBC) (domain or fragment)
chain: QIFSHLKKLRMSRQDIRDEFKESEGDPHVKGKIRQMQRAAAQRRMMEDVPKADVIVTNPTHYSVALQYDENKMSAPKVVAKGAGLIALRIREIGAEHRVPTLEAPPLARALYRHAEIGQQIPGQLYAAVAEVLAWVWQLKRWRLAGGQRPPQPENLPVPEALDFMNEKNTDG
modifications: biotin by amine crosslinking (NHS-LC-LC-biotin) when used as ligand
notes: as for B2
Regarding B3, binding with FliI [6] was put at a Kd of 1100 nM. In the data set with FliI [7], this molecule displayed a Kd of 84 nM, a koff of 0.0015 s⁻¹ and an association rate constant (kon) of 18000 M⁻¹ s⁻¹.
